Sequences and labels used below:
B1: S068 (designed binder)
chain: GDTRPRFLWQLKFECHFFNGTERVRLLERCIYNQEESVRFDSDVGEYRAVTELGRPDAEYWNSQKDLLEQRRAAVDTYCRHNYGVGESFTVQRRVEPKVTVYPSKTQPLQHHNLLVCSVSGFYPGSIEVRWFRNGQEEKAGVVSTGLIQNGDWTFQTLVMLETVPRSGEVYTCQVEHPSVTSPLTVEWRASGGGGSGGGGSGGGGIKEEHVIIQAEFYLNPDQSGEFMFDFDGDEIFHVDMAKKETVWRLEEFGRFASFEAQGALANIAVDKANLEIMTKRSNYTPITNVPPEVTVLTNSPVELREPNVLICFIDKFTPPVVNVTWLRNGKPVTTGVSETVFLPREDHLFRKFHYLPFLPSTEDVYDCRVEHWGLDEPLLKHWEFDAPSGGSHHHHHHLE
B2: S077 (designed binder)
chain: KPVSKMRMATPLLMQALPMASGGGGSGGGGDTRPRFLWQLKFECHFFNGTERVRLLERCIYNQEESVRFDSDVGEYRAVTELGRPDAEYWNSQKDLLEQRRAAVDTYCRHNYGVGESFTVQRRSGGGIKEEHVIIQAEFYLNPDQSGEFMFDFDGDEIFHVDMAKKETVWRLEEFGRFASFEAQGALANIAVDKANLEIMTKRSNYTGGSHHHHHHLE
B3: S143 (designed binder)
chain: MGDTRPRFLWQLKFECHFFNGTERVRLLERCIYNQEESVRFDSDVGEYRAVTELGRPDAEYWNSQKDLLEQRRAAVDTYCRHNYGVGESFTVQRRVIKEEHVIIQAEFYLNPDQSGEFMFDFDGDEIFHVDMAKKETVWRLEEFGRFASFEAQGALANIAVDKANLEIMTKRSNYTPTINGGSHHHHHH
B4: S134 (designed binder)
chain: MVKYHHHHHHGGSENLYFQGMGDTRPRFLWQPKRECHFFNGTERVRFLDRYFYNQEESVRFDSDVGEFRAVTELGRPDAEYWNSQKDILEQARAAVDTYCRHNYGVVESFTVQRRVIKEEHVIIQAEFYLNPDQSGEFMFDFDGDEIFHVDMAKKETVWRLEEFGRFASFEAQGALANIAVDKANLEIMTKRSNYTPITN
B5: S194 (designed binder)
chain: MGIKEEHVINQAEYYLNPDQSGEFKFDFDGDEIFHVDMAKKETVWRLEEFGRFASFEAQGALAHIAVDKANLEIMTKRSNYTPMGGGSKARMATGALAQAGGSGGSGDTRPRFLWQLKYECHFFNGTERVRLNERCIYNQEESVRFDSDVGEYRAVTELGRPDAEQWNSQKDHLEQRRAAVDTKCRHNYGVGESFTVQGGSHHHHHH
B6: S193 (designed binder)
chain: MGSKARMATGALAQAGGSGGSMIKEEHVINQAEYYLNPDQSGEFKFDFDGDEIFHVDMAKKETVWRLEEFGRFASFEAQGALAHIAVDKANLEIMTKRSNYTPMGDTRPRFLWQLKYECHFFNGTERVRLNERCIYNQEESVRFDSDVGEYRAVTELGRPDAEQWNSQKDHLEQRRAAVDTKCRHNYGVGESFTVQGGSHHHHHH
B7: S180 (designed binder)
single chain: MKEEHVIIQAEFYLNPDQSGEFMFDFDGDEIFHVDMAKKETVWRLEEFGRFASFEAQGALANIAVDKANLEIMTKRSNYTPITNTRPRFLWQPKRECHFFNGTERVRFLDRYFYNQEESVRFDSDVGEFRAVTELGRPDAEYWNSQKDILEQARAAVDTYCRHNYGVVESFTVQRRVQGGSHHHHHHLE
B8: S189 (designed binder)
single chain: MGIKEEHVINQAEYCLNPDQSGEFKFDFDGDEIFHVDMAKKETVWRLEEFGRFASFEAQGALAHIAVDCANLEIMTKRSNYTPMGDTRPRFLWQLKYECHFFNGTERVRLNERCIYNQEESVRFDSDVGEYRAVTELGRPDAEQWNSQKDHLEQRRAAVDTKCRHNYGVGESFTVQGGSHHHHHH
B9: S058 (designed binder)
chain: GSHSMRYNYTSVSRPGRGEPRFISEGYVDDTQFVRFDSDAASPREEPRAPWIEQEGPEYWDRNTQIYKAQAQTDRESLRNLRGYYNQSEAGSHTLQSMYGCDVGPDGRLLRGHDQYYYDGKDYISLNEDLRSWTAADTAAQITQRKWEAAREAEQRRAYLEGECVEWLRRYLENGKDKLERADGGSHHHHHHLE
notes: Derived from MHC I proteins
B10: S065 (designed binder)
chain: B9 chain with N8F, E25V, Y59A, Y117A, Y123S, S125A, K146Y, W167H, Y171V
notes: Derived from MHC I proteins
B11: S171 (designed binder)
chain: GDTRPRFLWQLKWECHFYNGTERVRLNERCNYNQEESVRFDSDVGEYRAVTELGRPDAEFSNSQKDNLEQRRAAVDTLCRHNYGVGESFTVQRRSGGGIKEEHVINQAEYYLNPDQSGEFKFDFDGDEIFHVDMAKKETVWRLEEFGRFAIIEAYGALANIAVDKANLEIMTKQSNYT
notes: Computationally derived scaffold
B12: S164 (designed binder)
chain: GIKEEHSIRQNEKYNNPDQSGNFEFHLDGQPIFRVDMQKKRTKWQLEEFGRFASFEAQGALANIAVFKINLEIMTKRSNQSEAGSHSWQLNFTCEFHEGTESVRLSERSYYNQENFVSFNSDVGEYRATTELGRPMAEYVNSQKDTLEQRRAAVDTYCRHNYGVGEYFTVQRR
notes: as for B11

Positions count from the first letter of the chain named.

One experiment addresses T1, KAAG1 disordered region peptide, PGAAAAHLPRWPPPQLAASRREA (biotin (position not given)).
T1 peptide: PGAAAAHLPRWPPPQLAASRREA
In words: modified sandwich ELISA (scaffold coated, biotinylated peptide, streptavidin-HRP fluorescence).
On to B1, for which the binding result is “no binding (tested: <5000 (fluorescence signal, key))”.

Regarding B2, the binding result is listed as “no binding (tested: <5000 (fluorescence signal, key))”.

With B3, the binding result is “no binding (tested: <5000 (fluorescence signal, key))”.

For B4, the binding result is reported as “no binding (tested: <5000 (fluorescence signal, key))”.

The next experiment concerns the target T2, CD74 disordered region peptide (CLIP), PPKPVSKMRMATPLLMQALPMGALP (biotin (position not given)).
T2 peptide: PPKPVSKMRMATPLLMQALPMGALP
Kind of experiment: modified sandwich ELISA, fluorescence grade (key: >400000, Strong binding). In general terms: ELISA stands for enzyme-linked immunosorbent assay.
Regarding B1, the fluorescent signal is more than 400000 fluorescentsignal.

Consider B2, for which the fluorescent signal was more than 400000 fluorescentsignal.

Regarding B3, the fluorescent signal was more than 400000 fluorescentsignal.

The target of another experiment is T3, CD40LG Epitope NKEETKKENSFEMQKGDQNPQIAAH (biotin (position not given)).
T3 peptide: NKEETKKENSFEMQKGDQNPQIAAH
Kind of experiment: ELISA, scaffold coated on the plate, biotinylated peptide titrated, streptavidin-HRP fluorescence. The procedure: (§1) Binder proteins were coated on the surface of a high binding capacity 96 well plate by incubating 100 μL of protein at […] in a coating solution (10 mM Tris pH 8.8, 50 mM NaCl), overnight at 4 C. The next morning, the coating solution was aspirated out and wells were washed once with 300 μL ELISA wash buffer (lx PBS, 0.05% Tween-20) and solution was aspirated out. The wells were blocked with 200 μL of a blocking buffer (1×PBS, 0.05% Tween-20, 3% BSA) at room temperature for 1 hour. After one hour, the blocking solution was aspirated out and 100 μL of biotinylated polypeptide in a binding buffer (1×PBS, 0.05% Tween-20, 0.5% BSA) at various concentrations was added to the appropriate well and incubated for 20 minutes. Peptide solution was aspirated out after 20 minutes and wells were washed 5 times with 300 μL of ELISA wash buffer. To detect the biotinylated peptide, 100 μL of streptavidin-HRP (50 ng/mL) was added to each well and incubated for 1 hour. The wells were subsequently washed 5 times with 300 μL of ELISA wash buffer. 100 μL of QuantaBlu Fluorogenic Peroxidase substrate solution was added to each well, incubated for 30 minutes and reaction stopped by adding 100 μL of stop solution. Fluorescent signal from each well was measured using a Biotek Cytation5 plate reader by exciting the fluorophore at […] and measuring emission at 420 nm. Fluorescent signals were plotted as a function of polypeptide concentration.
On to B5, for which the binding result is on record as “no binding (tested: 10000 nM)”.

On to B6, for which the binding result is given as “no binding (tested: 10000 nM)”.

The target in another experiment is T4, GMERKFMSLQPSISVSEMEPNGTFSNNNSRNCTIENFKREFFP (biotinylated, position not given).
T4 peptide: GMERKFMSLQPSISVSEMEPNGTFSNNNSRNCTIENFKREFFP
The description is as above. The method, then:
as §1
As for B5, the binding result is on record as “binds”.

With B6, the binding result is “binds”.

For B7, the binding result was “binds”.

Take B8: the binding result is on record as “binds”.

Another experiment has as its target T5, CYSLTR2 Epitope SISVSEMEPNGTFSNNNSRNC (N-terminally biotinylated).
T5 peptide: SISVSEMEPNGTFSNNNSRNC
The description is as above. The procedure: as §1
As to B5, the binding result was “binds”.

B6: the binding result is “binds”.

For the molecule B7, the binding result is “binds”.

As for B8, the binding result is “binds”.

A further experiment concerns the target T1, KAAG1 disordered region peptide, …. Described as above. The procedure: as §1
Regarding B5, the binding result is recorded as “no binding (tested: 10000 nM)”.

For the molecule B6, the binding result is given as “no binding (tested: 10000 nM)”.

With B9, the binding result is listed as “binds”.

As to B10, the binding result is on record as “no binding (tested: 10000 nM)”.

In the case of B11, the binding result is reported as “no binding (tested: 10000 nM)”.

With B12, the binding result is on record as “no binding (tested: 10000 nM)”.

The target of the next experiment is T6, KCNA6 Epitope QQQEQQPASGGGGQNGQQAMS (biotin (position not given)).
T6 peptide: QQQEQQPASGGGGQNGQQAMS
The experiment is described as above. The procedure:
as §1
Take B5: the binding result is given as “no binding (tested: 10000 nM)”.

As to B6, the binding result is on record as “no binding (tested: 10000 nM)”.

A further experiment has as its target T7, CYSLTR2 N-terminal disordered region, MERKFMSLQPSISVSEMEPNGTFSNNNSRNCTIENFKREFFP (biotin (position not given)).
T7 construct: also called CysLT2; CysLT2r
T7 peptide: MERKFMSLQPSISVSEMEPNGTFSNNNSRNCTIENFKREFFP
The experiment is described as above. The method, then: as §1
For the molecule B11, the binding result is “no binding (tested: 10000 nM)”.

As to B12, the binding result is “no binding (tested: 10000 nM)”.

A further experiment addresses T8, TNFRSF13B disordered region peptide, LPPELRRQRSGEVENNSDNSGRYQ (biotin (position not given)).
T8 peptide: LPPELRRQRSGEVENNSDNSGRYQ
Described as above. The procedure: as §1
Consider B5, for which the binding result was “no binding (tested: 10000 nM)”.

Turning to B6, the binding result was “no binding (tested: 10000 nM)”.

A further experiment addresses T9, Urotensin-2 receptor (UR-II-R) disordered region, MALTPESPSSFPGLAATGSSVPEPPGGPNATLNSSWASPTEPSSLEDLVATGTI (biotin (position not given)).
T9 construct: also called Urotensin II R; GPCR2 (Urotensin II)
T9 peptide: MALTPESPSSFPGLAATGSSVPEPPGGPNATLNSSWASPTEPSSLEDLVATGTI
Kind of experiment: modified sandwich ELISA (scaffold coated, biotinylated peptide, streptavidin-HRP fluorescence).
As for B9, the binding result is listed as “no binding (tested: <5000 (fluorescence signal, key))”.

As to B10, the binding result is “no binding (tested: <5000 (fluorescence signal, key))”.
